In US12065505B2, “Antibodies and antigen binding peptides for factor XIa inhibitors and uses thereof” (Bristol-Myers Squibb Company, priority 2021, dated 2024):

B1: 24H1-GQTV-Fab-LONG: antibody Fab fragment; VH SEQ ID NO: 80, VL SEQ ID NO: 98; sequence in Table 3 (antibody, V domains shown)
VH: EVQLVESGGGLIQPGGSLRLSCAASGFTVSRNYMSWVRQAPGKGLEWVSFIYSGGSTYYADSVKGRFTISRDNSKNTLYLQMNSLRAEDTAVYYCARGGFGGGDYWGQGTLVTVSS
VL: DIQMTQSPSSVSASVGDRVTITCRASQGISSWLAWYQHKPGKAPKLLIYAASSLQSGVPSRFSGSGSGTDFTLTISSLQPEDFATYYCQQANSFPLTFGGGTKVEIK
B2: 26D5-GVR-Q-FT-Fab-LONG: antibody Fab fragment; VH SEQ ID NO: 81, VL SEQ ID NO: 99; sequence in Table 3 (antibody, V domains shown)
VH: EVQLVESGGGLIQPGGSLRLSCAASGFTVSRNYMSWVRQAPGKGLEWVSFIYSGGRTYYADSVKGRFTISRDNSKNTLYLQMNSLRAEDTAVYYCARGGFGGGDYWGQGTLVTVSS
VL: DIQMTQSPSSVSASVGDRVTITCRASQGISSWLAWYQQKPGKAPKLLIYAASSLQSGVPSRFSGSGSGTDFTLTISSLQPEDFATYYCQQANSFPLTFGGGTKVEIK
B3: 26D5-GVR-Q-FT-Fab-SHORT: antibody Fab fragment; VH SEQ ID NO: 81, VL SEQ ID NO: 99; sequence in Table 3 (antibody, V domains shown)
VH: EVQLVESGGGLIQPGGSLRLSCAASGFTVSRNYMSWVRQAPGKGLEWVSFIYSGGRTYYADSVKGRFTISRDNSKNTLYLQMNSLRAEDTAVYYCARGGFGGGDYWGQGTLVTVSS
VL: DIQMTQSPSSVSASVGDRVTITCRASQGISSWLAWYQQKPGKAPKLLIYAASSLQSGVPSRFSGSGSGTDFTLTISSLQPEDFATYYCQQANSFPLTFGGGTKVEIK
B4: 26D5-GVR-H-Fab-LONG: antibody Fab fragment; VH SEQ ID NO: 81, VL SEQ ID NO: 98; sequence in Table 3 (antibody, V domains shown)
VH: EVQLVESGGGLIQPGGSLRLSCAASGFTVSRNYMSWVRQAPGKGLEWVSFIYSGGRTYYADSVKGRFTISRDNSKNTLYLQMNSLRAEDTAVYYCARGGFGGGDYWGQGTLVTVSS
VL: DIQMTQSPSSVSASVGDRVTITCRASQGISSWLAWYQHKPGKAPKLLIYAASSLQSGVPSRFSGSGSGTDFTLTISSLQPEDFATYYCQQANSFPLTFGGGTKVEIK
B5: 26D5-295-B08-Fab-LONG: antibody Fab fragment; VH SEQ ID NO: 60, VL SEQ ID NO: 88; sequence in Table 3 (antibody, V domains shown)
VH: EVQLVESGGGLIQPGGSLRLSCAASGFTVSSNAMSWVRQAPGKGLEWVSFIYPGGRTYYADSVKGRFTISRDNSKNTLYLQMNSLRAEDTAVYYCARAGFGGGDYWGQGTLVTVSS
VL: DIQMTQSPSSVSASVGDRVTITCRASQGISSNLAWYQQKPGKAPKLLIYAASSLQSGVPSRFSGSGSGTDFTLTISSLQPEDFATYYCQQANSFPLTFGGGTKVEIK
B6: 26D5-295-C08-Fab-LONG: antibody Fab fragment; VH SEQ ID NO: 62, VL SEQ ID NO: 88; sequence in Table 3 (antibody, V domains shown)
VH: EVQLVESGGGLIQPGGSLRLSCAASGFQVSSNAMSWVRQAPGKGLEWVSFIYPGGRTYYADSVKGRFTISRDNSKNTLYLQMNSLRAEDTAVYYCARGGFGGGDYWGQGTLVTVSS
VL: DIQMTQSPSSVSASVGDRVTITCRASQGISSNLAWYQQKPGKAPKLLIYAASSLQSGVPSRFSGSGSGTDFTLTISSLQPEDFATYYCQQANSFPLTFGGGTKVEIK
B7: 9C8-VGSKE-Fab-LONG: antibody Fab fragment; VH SEQ ID NO: 78, VL SEQ ID NO: 96; sequence in Table 3 (antibody, V domains shown)
VH: QVQLQESGPGLVKPSETLSLTCAVSGYSISSGYYWGWIRQPPGKGLEWIGSIYHSGNTYYSPSLQSRVTISVDTSKNQFSLKLSSVTAADTAVYYCARGGDFDILTGYYKGWFEPWGQGTLVTVSS
VL: AIQLTQSPSSLSASVGDRVTITCRASQGISSALAWYQQKPGKAPKLLIYDASSLESGVPSRFSGSGSGTDFTLTISSLQPEDFATYYCQQFNSYPQTFGQGTKVEIK
B8: 26D5-75203-343-B09-Fab-SHORT: antibody Fab fragment; VH SEQ ID NO: 54, VL SEQ ID NO: 87; sequence in Table 3 (antibody, V domains shown)
VH: EVQLVESGGGLIQPGGSLRLSCAASGFTVSSNAMSWVRQAPGKGLEWVSYIYPGGRTYYADSVKGRFTISRDNSKNTLYLQMNSLRAEDTAVYYCARAGFGGGDYWGQGTLVTVSS
VL: DIQMTQSPSSVSASVGDRVTITCRASQGISSNLAWYQQKPGKAPKLLIYAASTLQSGVPSRFSGSGSGTDFTLTISSLQPEDFATYYCQQANEFPLTFGGGTKVEIK
B9: 26D5-75768-348-A10-Fab-SHORT: antibody Fab fragment; VH SEQ ID NO: 56, VL SEQ ID NO: 89; sequence in Table 3 (antibody, V domains shown)
VH: EVQLVESGGGLIQPGGSLRLSCAASGFTVSSNAVSIVRQAPGKGLEWVAYIYPGGRTYYADSVKGRFTISRDNSKNTLYLQMNSLRAEDTAVYYCTIGGFGGGDYWGQGTLVTVSS
VL: DIQMTQSPSSVSASVGDRVTITCRASQGISSNNQWYQQKPGKAPKLLIYYASSLQSGVPSRFSGSGSGTDFTLTISSLQPEDFATYYCQQGNEFPLTFGGGTKVEIK
B10: 26D5-75214-343-F06-Fab-SHORT: antibody Fab fragment; VH SEQ ID NO: 53, VL SEQ ID NO: 85; sequence in Table 3 (antibody, V domains shown)
VH: EVQLVESGGGLIQPGGSLRLSCAASGFTVSSNAMSWVRQAPGKGLEWVSFIYPGGRTYYADSVKGRFTISRDNSKNTLYLQMNSLRAEDTAVYYCARAGFGGPDYWGQGTLVTVSS
VL: DIQMTQSPSSVSASVGDRVTITCRASQGISSNLAWYQQKPGKAPKLLIYAASSLQSGVPSRFSGSGSGTDFTLTISSLQPEDFATYYCQQANEFPLTFGGGTKVEIK
B11: 26D5-295-C08-Fab-SHORT: antibody Fab fragment; VH SEQ ID NO: 62, VL SEQ ID NO: 88; sequence in Table 3 (antibody, V domains shown)
VH: EVQLVESGGGLIQPGGSLRLSCAASGFQVSSNAMSWVRQAPGKGLEWVSFIYPGGRTYYADSVKGRFTISRDNSKNTLYLQMNSLRAEDTAVYYCARGGFGGGDYWGQGTLVTVSS
VL: DIQMTQSPSSVSASVGDRVTITCRASQGISSNLAWYQQKPGKAPKLLIYAASSLQSGVPSRFSGSGSGTDFTLTISSLQPEDFATYYCQQANSFPLTFGGGTKVEIK

Columns and labels:
[1] = SPR (Biacore) on chip coated with BSA conjugated to COMPOUND 2; assay type: binding; details: Fab over COMPOUND 2-BSA surface; for Ka / koff, dissociation rate constant: apparent; for Kd: apparent affinity
Experimental: The binding of the first round affinity matured antibody Fab fragments to conjugated versions of Compound A was examined by SPR (Biacore™) using a CM5 S-series sensor chip (Cytiva, Cat. No. 29149603) coated with BSA previously conjugated to COMPOUND 2, COMPOUND 3 or COMPOUND 1. The immobilization level was 150-250 RUs. The running buffer was 1×PBS (phosphate buffered saline, pH 7.4) with 0.05% Tween 20. […] The antibody Fab fragment at a concentration of between 200-0.8 nM was injected over the BSA-compound coated surface for 2 minutes at a flow rate of 30 uL/min. The antibody Fab fragment was then allowed to dissociate for 15 minutes. The chip surface was regenerated after each cycle with a 1 minute pulse of 10 mM Glycine, pH 2, and a 1 minute pulse of 50 mM NaOH. All experiments were run on the same equipment and analyzed with the same software as described before. Apparent affinities were determined for rank ordering only since dissociation rates were too slow to be measured by Biacore. Comparative experiments with selected mAbs were also conducted in a similar fashion (see FIG. 11).

[2] = Thermal stability by Differential Scanning Calorimetry; assay type: physicochemical; details: DSC; Fab 1 mg/ml
Experimental: Thermal stability analysis was performed with UNchained Labs UNcle™/Tagg analysis with Fabs at a concentration of 20 uM with or without Compound A at a concentration of 50 uM (or control compound). Capillaries were scanned from 25 to 90° C. at 0.5° C./min. In addition, select Fabs were also analyzed by Differential Scanning calorimetry analysis using the Malvern MicroCal VP-Capillary DSC. Samples were buffer matched and loaded with Fabs at a concentration of 10 uM with or without Compound A at a concentration of 15 uM (or control compound). Scan temperature range was 15-110° C. at a rate of 60° C./Hr (Filter period: 16 sec, Gain: None). Sample analysis was using software provided by the manufacturer for both the UNcle and the Malvern Capillary DSC. FIG. 15 and Table 14 below show representative DSC results.

[3] = Kinetic Exclusion Assay (KinExA) solution affinity; assay type: binding; details: for KinExA Ka: complex association rate, 200 pM Fab and 400 pM Compound A; for Kd: solution affinity for Compound A, Fab 100, 200, 300 pM, equilibrated 24-72 hours
Experimental: The solution affinity of the antibody Fab fragments disclosed herein for Compound A was measured using a Kinetic Exclusion Assay (KinExA). […] The relative unbound concentration of 26D5 affinity matured antibody Fab fragment was measured by capture on a streptavidin coated bead with COMPOUND 5 followed by detection with a fluorescently labeled antibody that recognizes the human IgG Fab. Kinetic analysis to determine the complex association rate was measured with the same assay format except that a single tube of the mixture was prepared (200 pM Fab and 400 pM Compound A) and time points were removed immediately (no equilibration). Two Fabs, 26D5-75229-343-A10-Fab-SHORT and 26D5-75616-348-F10-Fab-SHORT, were identified as the top two Fabs by DSC thermal stability and KinExA analysis. Antibody Fab fragment 26D5-75616-348-F10-Fab-SHORT (SEQ ID NO: 106 and SEQ ID NO: 164; see Table 3) was selected for X-ray crystallography as described below and in vivo studies as described in Example 12.

Molecule | Ka ([1]; 37° C.) [M⁻¹ s⁻¹] | koff, dissociation rate constant ([1]; 37° C.) [s⁻¹] | Kd ([1]; 37° C.) [nM] | Tm1 (° C.) [2] [°C] | other results
B1 | 790000 | 0.001 | 1.3 | – | –
B2 | 1.3e+06 | 0.0016 | 1.3 | – | –
B3 | 1.6e+06 | 0.0013 | 0.9 | – | –
B4 | 280000 | 0.001 | 3.5 | – | –
B5 | 280000 | 0.00022 | 0.8 | – | –
B6 | 280000 | 8.5e-05 | 0.3 | – | –
B7 | – | – | – | – | Ka ([1]; 25° C.): 400000 M⁻¹ s⁻¹; koff, dissociation rate constant ([1]; 25° C.): 0.00087 s⁻¹; Kd ([1]; 25° C.): 2.1 nM
B8 | – | – | – | 76.6 | KinExA Ka [3]: 14000 M⁻¹ s⁻¹; Kd [3]: 0.01 nM
B9 | – | – | – | 66.3 | Tm2 (° C.) [2]: 74.1 °C
B10 | – | – | – | 75.5 | KinExA Ka [3]: 600000 M⁻¹ s⁻¹; Kd [3]: 0.015 nM
B11 | – | – | – | 75.3 | –
